Assay results as given in US20200165340A1 (XIANGTAN TENGHUA BIOSCIENCE, published 2020).

Molecular target: T1, human PD-L1 expressed at the cell membrane (human, UniProt Q9NZQ7 19-290)
T1 construct: whole, on cells; also called programmed death-ligand 1; cellular PD-L1 protein
Test: flow cytometry (FACS) titration on 293T cells stably transfected with human PD-L1, anti-mouse IgG PE detection

T1 sequence (Q9NZQ7 19-290): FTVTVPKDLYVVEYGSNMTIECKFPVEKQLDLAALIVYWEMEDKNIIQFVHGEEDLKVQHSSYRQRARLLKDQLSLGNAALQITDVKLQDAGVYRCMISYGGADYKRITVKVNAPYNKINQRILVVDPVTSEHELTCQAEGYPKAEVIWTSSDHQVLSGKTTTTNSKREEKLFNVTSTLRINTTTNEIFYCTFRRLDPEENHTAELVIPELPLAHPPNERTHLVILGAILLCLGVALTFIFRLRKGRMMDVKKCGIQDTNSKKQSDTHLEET

EC50: 300 pM
B1: anti-PD-L1 mouse monoclonal antibody Q106 (antibody, V domains shown)
VH: DVQLQESGPGLVKPSQSLSLTCSVTGYSITSDYAWNWIRQFPGDTLEWMGYINYSGSSTYNPSLISRLSITRDTSKNQFFLQLNSVTSEDTATYYCARGPDWDWYFDYWGQGTTLTVSS
VL: DIVLTQSPATLSVTPGDSVSLSCRASQSISNNLHWYQQKSHESPRLLIKYASQSISGIPSRFSGSGSGTDFTLSINGVETEDFGMYFCQQTNSWPTFGGGTKLEIK
notes: also called PD-L1 antibody Q106
